The values below come from the Immune Epitope Database (IEDB).

The target of assay [1] is HLA-B*44:02. Nature of the assay: IEDB peptide-MHC binding, purified MHC/direct/fluorescence; filed as Kd, often an IC50 or EC50 that approximates it; ≥ and ≤ were set here for values at or beyond the usual limits of such assays.
For assay [2], the target named is HLA-B*58:01. Described as above.
For assay [3], the target named is HLA-C*12:03. The assay is described as above. The following applies: source organism: West Nile virus.
The target of assay [4] is HLA-B*40:01. The assay is described as above.
Assay [5] has as its target HLA-A*11:01. The assay is described as above.
Assay [6] deals with HLA-A*03:01. Described as above.
In assay [7] the target is HLA-A*31:01. The assay is described as above.
For assay [8], the target named is HLA-B*15:01. Described as above.
Assay [9] addresses HLA-B*57:01. The assay is described as above.
Assay [10] has as its target HLA-B*15:09. The assay is described as above. The following applies: source organism: West Nile virus strain PTRoxo.
Assay [11] addresses HLA-B*27:05. The assay is described as above.
Assay [12] has as its target HLA-B*46:01. Described as above.
In assay [13] the target is HLA-B*48:01. Described as above.
Assay [14] deals with HLA-C*05:01. The assay is described as above.
For assay [15], the target named is HLA-B*18:01. The description is as above.
In assay [16] the target is HLA-B*07:02. Described as above.
The target of assay [17] is HLA-A*69:01. Described as above.
For assay [18], the target named is HLA-A*01:01. Described as above.
In assay [19] the target is HLA-A*29:02. Described as above. The following applies: source organism: Yellow fever virus 1899/81.
Assay [20] concerns the target HLA-B*51:01. Described as above. The following applies: source organism: Mycobacterium tuberculosis.
Assay [21] has as its target HLA-B*39:01. The assay is described as above. The following applies: source organism: Mycobacterium tuberculosis str. Haarlem.
In assay [22] the target is HLA-A*30:01. Nature of the assay: IEDB peptide-MHC binding, purified MHC/competitive/fluorescence; filed as Kd, often an IC50 or EC50 that approximates it; ≥ and ≤ were set here for values at or beyond the usual limits of such assays. The following applies: source organism: Mycobacterium tuberculosis variant bovis BCG str. Pasteur 1173P2.
The target in assay [23] is HLA-A*02:01. The description is as above. The following applies: source organism: Mycobacterium tuberculosis variant bovis BCG str. Pasteur 1173P2.
The target of assay [24] is HLA-B*83:01. The description is as above.
For assay [25], the target named is HLA-B*08:01. Described as above.
The target of assay [26] is HLA-B*15:17. The description is as above.
Assay [27] concerns the target HLA-A*02:06. The description is as above.
For assay [28], the target named is HLA-B*15:42. The description is as above.
The target of assay [29] is HLA-B*45:06. The assay is described as above.
Assay [30] deals with HLA-C*14:02. Nature of the assay: IEDB peptide-MHC binding, purified MHC/direct/fluorescence; filed as Kd, often an IC50 or EC50 that approximates it; ≥ and ≤ were set here for values at or beyond the usual limits of such assays. The following applies: source organism: Yellow fever virus.
In assay [31] the target is HLA-C*06:02. The assay is described as above. The following applies: source organism: Yellow fever virus.
Assay [32] has as its target HLA-C*15:02. Described as above. The following applies: source organism: Yellow fever virus.
In assay [33] the target is HLA-C*07:02. The description is as above. The following applies: source organism: Influenza A virus (A/Fort Monmouth/1/1947-mouse adapted(H1N1)).
The target of assay [34] is HLA-A*02:01. The assay is described as above. The following applies: source organism: Influenza A virus (A/quail/Hong Kong/FY298/00(H9N2)).
Assay [35] deals with HLA-A*24:02. The assay is described as above. The following applies: source organism: Influenza A virus (A/quail/Hong Kong/FY298/00(H9N2)).
The target in assay [36] is HLA-A*24:03. The assay is described as above. The following applies: source organism: Influenza A virus (A/quail/Hong Kong/FY298/00(H9N2)).
In assay [37] the target is HLA-A*26:01. The description is as above. The following applies: source organism: Influenza A virus(A/swine/Henan/5/2004(H9N2)).
The target in assay [38] is HLA-B*08:02. Described as above. The following applies: source organism: Influenza A virus(A/swine/Henan/5/2004(H9N2)).
Assay [39] concerns the target HLA-A*68:02. Nature of the assay: IEDB peptide-MHC binding, purified MHC/competitive/fluorescence; filed as Kd, often an IC50 or EC50 that approximates it; ≥ and ≤ were set here for values at or beyond the usual limits of such assays. The following applies: source organism: Influenza A virus (A/Fort Monmouth/1/1947-mouse adapted(H1N1)).
Setting [40] is: source organism: West Nile virus.
Where [41] appears, read: source organism: Yellow fever virus 1899/81.
[42] abbreviates: source organism: Mycobacterium tuberculosis.
The mark [43] stands for this setting: source organism: Mycobacterium tuberculosis variant bovis BCG str. Pasteur 1173P2.
Where [44] appears, read: source organism: Yellow fever virus.
Where [45] appears, read: source organism: Influenza A virus (A/quail/Hong Kong/FY298/00(H9N2)).
[46] abbreviates: source organism: Influenza A virus (A/Fort Monmouth/1/1947-mouse adapted(H1N1)).

For FVDVGVSAL, the Kd in assay [1] (setting [40]), in [2] (setting [40]), in [3], in assay [4] (setting [40]), in assay [5] (setting [40]) and in assay [6] (setting [40]) was not below 20 µM each time. Moreover, the dissociation constant Kd in [7] (setting [40]) is not below 20 µM; in assay [8] (setting [40]), not below 20 µM; in assay [9] (setting [40]) it was not below 20 µM; in [10] it was 2.2 µM; in assay [11] (setting [40]), not below 20 µM; in assay [12] (setting [40]), not below 20 µM. Also, the Kd in assay [13] (setting [40]) was not below 20 µM; in [14] (setting [40]), not above 0.001 µM; in assay [15] (setting [40]), not below 20 µM; in [16] (setting [40]), not below 20 µM.
Take RADEINAIL: the Kd in assay [17] (setting [41]), in [1] (setting [41]), in [18] (setting [41]), in assay [19], in [5] (setting [41]) and in [6] (setting [41]) was not below 20 µM throughout. The Kd in assay [7] (setting [41]) was not below 20 µM; in assay [8] (setting [41]), not below 20 µM; in assay [9] (setting [41]), not below 20 µM; in assay [11] (setting [41]), not below 20 µM; in [12] (setting [41]), not below 20 µM; in assay [14] (setting [41]) it was not above 0.001 µM. In assay [15] (setting [41]), this sequence came in with a Kd not below 20 µM.
In the case of RPRLHSISF, the equilibrium dissociation constant (Kd) in [17] (setting [42]) is not below 20 µM; in [2] (setting [42]) it was not below 20 µM; in assay [20] it was not below 20 µM; in assay [18] (setting [42]), 1.31 µM; in assay [4] (setting [42]), not below 20 µM; in assay [5] (setting [42]), not below 20 µM. Further, the Kd was not below 20 µM in assay [6] (setting [42]); not below 20 µM in assay [7] (setting [42]); 0.079 µM in [8] (setting [42]); not below 20 µM in [21]; not below 20 µM in assay [9] (setting [42]); not below 20 µM in assay [11] (setting [42]). For the same sequence, the Kd in assay [12] (setting [42]) was not below 20 µM; in assay [13] (setting [42]), not below 20 µM; in assay [22], not below 20 µM; in assay [23], not below 20 µM; in [24] (setting [43]), 0.045 µM; in [25] (setting [43]) it was 0.0159 µM. Besides, the equilibrium dissociation constant (Kd) in [26] (setting [43]) was not below 20 µM; in assay [27] (setting [43]) it was not below 20 µM; in assay [28] (setting [43]), not below 5 µM; in [29] (setting [43]) it was not below 5 µM.
On to RWFVRNPFF, for which the Kd in assay [30] is 0.278 µM; in [31], not below 20 µM; in assay [32], not below 20 µM; in assay [24] (setting [44]), not below 5 µM; in assay [28] (setting [44]), not below 5 µM; in assay [29] (setting [44]), not below 5 µM.
In the case of SYLIRALTL, the Kd in assay [33] was 0.055 µM; in assay [2] (setting [45]), not below 20 µM; in assay [34], not below 20 µM; in assay [35], 0.0039 µM; in assay [36], not above 0.001 µM; in assay [37], not below 20 µM. Moreover, the Kd in assay [38], in assay [18] (setting [45]), in [5] (setting [45]), in assay [6] (setting [45]), in assay [7] (setting [45]) and in [8] (setting [45]) was not below 20 µM each time. For the same sequence, the Kd is not below 20 µM in assay [9] (setting [45]); not below 20 µM in assay [11] (setting [45]); not below 20 µM in assay [15] (setting [45]); not below 20 µM in assay [16] (setting [45]); 1.19 µM in [39]; 1.72 µM in assay [25] (setting [46]). The results for the dissociation constant (Kd) in assay [26] (setting [46]) and in assay [27] (setting [46]) were 0.196 µM and 1.41 µM, respectively.

By Kd is commonly meant the constant that tells how readily two partners part at equilibrium.
